Results reported in PMC10996701.

Biological target: yeast RPA (yRPA, ScRPA) (Saccharomyces cerevisiae, UniProt P22336;P26754;P26755 1-621;1-273;1-122)
Assay: DEER

yeast RPA (yRPA, ScRPA), sequence (P22336 whole entry, chain 1 of 3): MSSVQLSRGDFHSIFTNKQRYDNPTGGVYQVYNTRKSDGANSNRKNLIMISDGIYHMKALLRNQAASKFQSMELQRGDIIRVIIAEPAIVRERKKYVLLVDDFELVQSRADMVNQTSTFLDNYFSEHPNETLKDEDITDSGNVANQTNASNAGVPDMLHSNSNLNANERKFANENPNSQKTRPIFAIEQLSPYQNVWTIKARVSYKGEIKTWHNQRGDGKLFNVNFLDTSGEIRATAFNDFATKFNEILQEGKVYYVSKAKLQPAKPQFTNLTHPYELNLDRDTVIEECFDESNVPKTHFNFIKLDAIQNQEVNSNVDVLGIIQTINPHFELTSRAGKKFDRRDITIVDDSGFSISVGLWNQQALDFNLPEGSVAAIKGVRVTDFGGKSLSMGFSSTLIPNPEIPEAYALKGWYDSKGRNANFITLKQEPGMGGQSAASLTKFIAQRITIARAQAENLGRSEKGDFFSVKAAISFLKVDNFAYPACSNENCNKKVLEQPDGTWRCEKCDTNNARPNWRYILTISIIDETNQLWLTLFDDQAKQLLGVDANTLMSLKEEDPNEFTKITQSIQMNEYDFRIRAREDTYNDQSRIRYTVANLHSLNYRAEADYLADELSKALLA
yeast RPA (yRPA, ScRPA), sequence (P26754 whole entry, chain 2 of 3): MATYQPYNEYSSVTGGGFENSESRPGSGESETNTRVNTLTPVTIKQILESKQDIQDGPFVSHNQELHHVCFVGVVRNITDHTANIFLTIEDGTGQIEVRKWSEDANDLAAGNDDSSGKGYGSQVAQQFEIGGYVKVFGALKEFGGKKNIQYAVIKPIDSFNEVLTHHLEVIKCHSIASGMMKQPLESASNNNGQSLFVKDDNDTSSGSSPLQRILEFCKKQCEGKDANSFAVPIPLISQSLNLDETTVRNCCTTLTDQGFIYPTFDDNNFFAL
yeast RPA (yRPA, ScRPA), sequence (P26755 whole entry, chain 3 of 3): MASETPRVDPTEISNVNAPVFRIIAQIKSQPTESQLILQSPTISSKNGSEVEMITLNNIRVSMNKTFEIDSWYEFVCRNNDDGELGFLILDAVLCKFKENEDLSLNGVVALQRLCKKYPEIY

B1: (dT)22 DEER (ssDNA)
DNA: UTTTTTTTTTTTTTTTTTTTTTTUT
modifications: M = 2'-aminouridine spin-labelled with isoindoline nitroxide, at the two U positions (1 and 24)
binding result: binds
